Measured values taken from publication PMC3299731 (PLoS ONE, 2012).

Tests used:
[1] = molecular target: T1, translin (untagged, co-expressed);TRAX (human;human, UniProt Q15631;Q99598 1-228;1-290, |); assay: UV-laser crosslinking (248 nm); DNA covalently linked to TRAX subunit; silver stain; 25 mM Tris-HCl pH 8.0, 100 mM NaCl, 1 mM EDTA, 30 min; temperature not stated; 4.5% native PAGE in 0.5x TBE; settings: protein: recombinant;recombinant; tags: none;N-terminal 6xHis
translinB3 = translinB3 (human, UniProt Q15631 1-228, R192T;K193N;R194S;Y195N); assay: EMSA; 100 nM octamer, 200 nM labeled DNA; 25 mM Tris-HCl pH 8.0, 100 mM NaCl, 1 mM EDTA, 30 min; temperature not stated; 4.5% native PAGE in 0.5x TBE; settings: protein: recombinant; tags: N-terminal 6xHis; chain copies: 8; label: 5'-32P (unlabeled in agarose EMSA)
translinB3, sequence (Q15631 whole entry R192T/K193N/R194S/Y195N): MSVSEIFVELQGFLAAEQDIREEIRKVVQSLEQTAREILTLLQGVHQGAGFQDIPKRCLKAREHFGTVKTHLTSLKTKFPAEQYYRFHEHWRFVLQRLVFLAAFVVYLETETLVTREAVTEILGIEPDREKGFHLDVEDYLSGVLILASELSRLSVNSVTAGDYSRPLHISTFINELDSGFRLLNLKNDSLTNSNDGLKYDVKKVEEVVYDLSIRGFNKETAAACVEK

[2] = molecular target: translinB3 (untagged, co-expressed);TRAX (human;human, UniProt Q15631;Q99598 1-228;1-290, R192T;K193N;R194S;Y195N|); assay: EMSA; 100 nM complex, 200 nM DNA; 25 mM Tris-HCl pH 8.0, 100 mM NaCl, 1 mM EDTA, 30 min; temperature not stated; 4.5% native PAGE in 0.5x TBE; settings: protein: recombinant;recombinant; tags: none;N-terminal 6xHis; label: 5'-32P (unlabeled in agarose EMSA)
translinB3 (untagged, co-expressed);TRAX, sequence (Q15631 whole entry R192T/K193N/R194S/Y195N, chain 1 of 2): as the sequence (Q15631 whole entry R192T/K193N/R194S/Y195N) above
translinB3 (untagged, co-expressed);TRAX, sequence (Q99598 whole entry, chain 2 of 2): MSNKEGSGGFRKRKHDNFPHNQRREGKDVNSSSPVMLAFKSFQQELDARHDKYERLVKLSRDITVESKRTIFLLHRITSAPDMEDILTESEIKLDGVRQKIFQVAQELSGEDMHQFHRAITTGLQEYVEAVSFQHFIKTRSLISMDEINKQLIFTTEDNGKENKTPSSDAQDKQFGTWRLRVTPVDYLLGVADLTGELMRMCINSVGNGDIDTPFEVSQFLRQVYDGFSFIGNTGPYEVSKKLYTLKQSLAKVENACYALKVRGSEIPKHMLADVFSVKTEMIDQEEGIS

translinB3 (untagged, …) [3] = molecular target: translinB3 (untagged, co-expressed);TRAXB2 (human;human, UniProt Q15631;Q99598 1-228;1-290, R192T;K193N;R194S;Y195N|Q115L;H117N;R118A); assay: as above; settings: protein: recombinant;recombinant; tags: none;N-terminal 6xHis; label: 5'-32P (unlabeled in agarose EMSA)
translinB3 (untagged, co-expressed);TRAXB2, sequence (Q15631 whole entry R192T/K193N/R194S/Y195N, chain 1 of 2): as the sequence (Q15631 whole entry R192T/K193N/R194S/Y195N) above
translinB3 (untagged, co-expressed);TRAXB2, sequence (Q99598 whole entry Q115L/H117N/R118A, chain 2 of 2): as the sequence (Q99598 whole entry, chain 2 of 2) above, with Q115L, H117N, R118A counted along it

translinB3 (untagged, …) [4] = molecular target: translinB3 (untagged, co-expressed);TRAXB3 (human;human, UniProt Q15631;Q99598 1-228;1-290, R192T;K193N;R194S;Y195N|K241N;K242T;Y244N); assay: as above; settings: protein: recombinant;recombinant; tags: none;N-terminal 6xHis; label: 5'-32P (unlabeled in agarose EMSA)
translinB3 (untagged, co-expressed);TRAXB3, sequence (Q15631 whole entry R192T/K193N/R194S/Y195N, chain 1 of 2): as the sequence (Q15631 whole entry R192T/K193N/R194S/Y195N) above
translinB3 (untagged, co-expressed);TRAXB3, sequence (Q99598 whole entry K241N/K242T/Y244N, chain 2 of 2): as the sequence (Q99598 whole entry, chain 2 of 2) above, with K241N, K242T, Y244N counted along it

[5] = molecular target: translin (untagged, co-expressed);TRAXB2 (human;human, UniProt Q15631;Q99598 1-228;1-290, |Q115L;H117N;R118A); assay: EMSA; 100 nM complex, 100 nM DNA; 25 mM Tris-HCl pH 8.0, 100 mM NaCl, 1 mM EDTA, 30 min; temperature not stated; 4.5% native PAGE in 0.5x TBE; settings: protein: recombinant;recombinant; tags: none;N-terminal 6xHis; label: 5'-32P (unlabeled in agarose EMSA)
translin (untagged, co-expressed);TRAXB2, sequence (Q15631 whole entry, chain 1 of 2): as the sequence (Q15631 whole entry R192T/K193N/R194S/Y195N) above, with T192R, N193K, S194R, N195Y counted along it
translin (untagged, co-expressed);TRAXB2, sequence (Q99598 whole entry Q115L/H117N/R118A, chain 2 of 2): as the sequence (Q99598 whole entry, chain 2 of 2) above, with Q115L, H117N, R118A counted along it

translinB2 (untagged, …) = molecular target: translinB2 (untagged, co-expressed);TRAXB2 (human;human, UniProt Q15631;Q99598 1-228;1-290, R86T;H88N;H90N|Q115L;H117N;R118A); assay: as above; settings: protein: recombinant;recombinant; tags: none;N-terminal 6xHis; label: 5'-32P (unlabeled in agarose EMSA)
translinB2 (untagged, co-expressed);TRAXB2, sequence (Q15631 whole entry R86T/H88N/H90N, chain 1 of 2): as the sequence (Q15631 whole entry R192T/K193N/R194S/Y195N) above, with R86T, H88N, H90N, T192R, N193K, S194R, N195Y counted along it
translinB2 (untagged, co-expressed);TRAXB2, sequence (Q99598 whole entry Q115L/H117N/R118A, chain 2 of 2): as the sequence (Q99598 whole entry, chain 2 of 2) above, with Q115L, H117N, R118A counted along it

[6] = molecular target: T1, translin (untagged, co-expressed);TRAX; assay: as above; settings: protein: recombinant;recombinant; tags: none;N-terminal 6xHis; label: 5'-32P (unlabeled in agarose EMSA)
[7] = molecular target: translinB2 (untagged, co-expressed);TRAX (human;human, UniProt Q15631;Q99598 1-228;1-290, R86T;H88N;H90N|); assay: as above; settings: protein: recombinant;recombinant; tags: none;N-terminal 6xHis; label: 5'-32P (unlabeled in agarose EMSA)
translinB2 (untagged, co-expressed);TRAX, sequence (Q15631 whole entry R86T/H88N/H90N, chain 1 of 2): as the sequence (Q15631 whole entry R192T/K193N/R194S/Y195N) above, with R86T, H88N, H90N, T192R, N193K, S194R, N195Y counted along it
translinB2 (untagged, co-expressed);TRAX, sequence (Q99598 whole entry, chain 2 of 2): as the sequence (Q99598 whole entry, chain 2 of 2) above

[8] = molecular target: T1, translin (untagged, co-expressed);TRAX; assay: UV-laser crosslinking (248 nm); DNA covalently linked to TRAX subunit; 25 mM Tris-HCl pH 8.0, 100 mM NaCl, 1 mM EDTA, 30 min; temperature not stated; 4.5% native PAGE in 0.5x TBE; settings: protein: recombinant;recombinant; tags: none;N-terminal 6xHis; label: 5'-32P (unlabeled in agarose EMSA)

T1 sequence (Q15631 whole entry, chain 1 of 2): as the sequence (Q15631 whole entry R192T/K193N/R194S/Y195N) above, with T192R, N193K, S194R, N195Y counted along it
T1 sequence (Q99598 whole entry, chain 2 of 2): as the sequence (Q99598 whole entry, chain 2 of 2) above

Q: Does CCTGTAGTAATGGCTGCATTGAACAGATGCATATCTTCCCCTG (ssDNA) [43-mer (trxB2 reverse primer)] bind [1]?
A: binds

Q: Does GCCCTCCTGCCCTCCTTCCGCGGG (ssDNA) [Bcl-CL1 24-mer] bind (translinB3)?
A: no binding

Q: Does GCCCTCCTGCCCTCCTTCCGCGGG (ssDNA) [Bcl-CL1 24-mer] bind [2]?
A: no binding

Q: Does GCCCTCCTGCCCTCCTTCCGCGGG (ssDNA) [Bcl-CL1 24-mer] bind (translinB3 (untagged, …) [3])?
A: no binding

Q: Does GCCCTCCTGCCCTCCTTCCGCGGG (ssDNA) [Bcl-CL1 24-mer] bind (translinB3 (untagged, …) [4])?
A: no binding

Q: Does GCCCTCCTGCCCTCCTTCCGCGGG (ssDNA) [Bcl-CL1 24-mer] bind [5]?
A: binds

Q: Does GCCCTCCTGCCCTCCTTCCGCGGG (ssDNA) [Bcl-CL1 24-mer] bind (translinB2 (untagged, …))?
A: binds

Q: Does GCCCTCCTGCCCTCCTTCCGCGGG (ssDNA) [Bcl-CL1 24-mer] bind [6]?
A: binds

Q: Does GCCCTCCTGCCCTCCTTCCGCGGG (ssDNA) [Bcl-CL1 24-mer] bind [7]?
A: binds

Q: Does GCCCTCCTGCCCTCCTTCCGCGGG (ssDNA) [Bcl-CL1 24-mer] bind [8]?
A: binds
